Here are results for 1 substance from patent JP2021530247A.

Experiment [1] deals with 10ng/mLのタンパク質サンプル (rBcl-2; R&D Systems or in-house, not stated) (UniProt P10415). The experiment in a line: sandwich ELISA with the commercial reagents (taken as Bcl-2/100 capture, 4D7-biotin detector), 10 ng/mL protein. For orientation: ELISA stands for enzyme-linked immunosorbent assay.
The next experiment concerns the target Bcl-2を発現しているライセート (UniProt P10415). The experiment in a line: sandwich ELISA with the commercial reagents (taken as Bcl-2/100 capture, 4D7-biotin detector), lysate.

Consider mAb Bcl-2/100 (antibody), for which the OD turned out to be 0.67 OD in experiment [1] and 0.24 OD with Bcl-2を発現しているライセート.
